These results are taken from the supplement of paper PMC12042874.

This data set can be described thus: amyloid nucleation score (Sup35N fusion, yeast selection) (log enrichment); library NNK3; higher = more nucleation; inactive = no reads after selection. In short, it runs like this:
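Psi-negative yeast expressed Sup35N fused to peptides of 20 random codons. They were induced 24 hours with 100 μM copper sulfate, grown 7 days at 30°C without adenine and uracil, and their plasmid inserts from input and output were Illumina-sequenced. The nucleation score is the DiMSum log enrichment of output over input reads, centred on the mode score of non-aggregating sequences. Sequences with under 100 input reads were excluded.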

± gives the uncertainty stated by the source.

FNVSTGCRWSWAPDHSPCQE came in with an amyloid nucleation score of -0.058 ± 0.66.
As to FSYSFVTRDMATYGRTLVKS, the amyloid nucleation score entry is “inactive”.
On to IIYKTVHVYVYCSIVLERDL, for which the amyloid nucleation score result is “inactive”.
The substance TWQFSGYWCSLYMSA gave an amyloid nucleation score of 1.67 ± 0.12.
The same measure for RYFAMGFRNSCYL: 2.02 ± 0.065; for SCQNRWYSSFHKLAETRSYW: “inactive”.
Then LSQVFLVMFKF, with “inactive”; and TITLFSSWGSV, with 0.612 ± 0.22.
On to DFYGYSY, for which the amyloid nucleation score entry is “inactive”.
As for TYMGSTYLSNSYVLVSNNIK, the amyloid nucleation score worked out at 1.72 ± 0.12.
The same measure for SRSSCRVIPT: “inactive”; for YINLFGKWA: 1.53 ± 0.1; for HTILSTTTYMKMSQYSLW: “inactive”.
Turning to HGSYSDGVEVNEFRLGTRVG, the amyloid nucleation score entry was “inactive”.
With KDWQTIYQLRSVTFFDLLVV, the amyloid nucleation score result is “inactive”.
Then PSLLQVHKCLRIRLIWRWLW, with “inactive”; and NSMSKVKMLVRSISTIEEVK, with “inactive”.
Turning to DMVSRSSCSDL, the amyloid nucleation score entry is “inactive”.
The same measure for VDFRYCCGFV: 0.824 ± 0.26; for MEFHYWTGVCQVSK: “inactive”.
NRLNGSLILDRHLL: the amyloid nucleation score entry was “inactive”.
The same measure for IFEVYDVIT: “inactive”.
SGTPVPAYSTSWQQNWVKQC: the amyloid nucleation score result is “inactive”.
RSDCNGSSKYLISDHFP: the amyloid nucleation score result was “inactive”.
Regarding RCFGKIC, the amyloid nucleation score result is “inactive”.
For NQEQWWLATAYPNVSWSIKL, the amyloid nucleation score entry is “inactive”.
As to DMINSGQISDHVLD, the amyloid nucleation score result was “inactive”.
The same measure for LRWYPVDMI: “inactive”.
With GEKCGRSRI, the amyloid nucleation score result is “inactive”.
For FPRSSRIFSCCSRIRLCAFV, the amyloid nucleation score result is “inactive”.
Then VHGYAAFLRRWWEQMNFSVR, with “inactive”.
The same measure for WLLENVPGITLAFV: “inactive”.
Take VRIKFCAWKLGYGSTGNVHI: the amyloid nucleation score came out at 0.657 ± 0.2.
The same measure for GIGIFSCLKSSVLCLIYLSR: -0.113 ± 0.31; for HIFDNSYIFLDLLLARKY: 1.87 ± 0.061.
The same measure for GTIRDSGSHYKVISF: “inactive”; for HLVMGWLTKPSSIFGLEDKR: 1.13 ± 0.11; for NLKKARSTSFIDEPECRPRP: -0.406 ± 1.1.
On to SNTHLYCLMFRLPCRILDRK, for which the amyloid nucleation score result was “inactive”.
Consider VIVYQKSMLHLGCSLGIAFW, for which the amyloid nucleation score entry was “inactive”.
The same measure for LRAFMYLFTYKTWIRTSNGV: “inactive”; for NQGWTCWCVSCCLGVKIVMI: “inactive”.
The same measure for IAVCTRAMASNRLGFQYRNG: “inactive”; for VVASDNSTMVENWSFNGKMS: “inactive”; for GICHTFDAGTVFFLFGSWFI: “inactive”.
Then SDLTMIRVPIFITLRPPHSS, with “inactive”.
As for GCINKDDYKSDCWSFYKTE, the amyloid nucleation score result is “inactive”.
The same measure for LELGTLTNRSLCFCEILPFC: “inactive”; for IYLECIYNCFYVYKIMLHRV: “inactive”; for VGNWYGKTIGMSSLEFLMSR: “inactive”.
The same measure for NSSAKGFVQV: “inactive”.
The same measure for TCLNGLVESRLAGFYHLRGP: “inactive”.
In turn, VMLFY gave an amyloid nucleation score of 0.845 ± 0.14.
As to IKFVIIRITHSREKFSVPLS, the amyloid nucleation score entry is “inactive”.
Then RSKLYEISRIRKMGHPHTAE, with “inactive”; and LYAFICTTYTCVVN, with “inactive”; and FLVVVSF, with “inactive”.
The same measure for WVFVRMMVELINMTAAFAVS: “inactive”; for GVVYWVIRKTIEGSLQFASI: “inactive”; for VRITSMPTFWRIEPGYLERV: “inactive”.
For the substance FDFRFYQVVVGGCRIETVIV, the amyloid nucleation score result is “inactive”.
VEDCSFAVVKILWYRPFMIW: the amyloid nucleation score result is “inactive”.
The same measure for FIWIIMVGNNVPNT: 2.06 ± 0.093.
Then MSKDFSRGVQLTDRCLLC, with “inactive”.
The same measure for TSYSKEVFQLLKWVGNLIRG: “inactive”; for TPLESGLSI: “inactive”.
VFAFGNIGLVRWFVI: the amyloid nucleation score entry is “inactive”.
The same measure for LLNPCKRSCVNLRMHTQPSS: “inactive”; for PIQGAMTRNYRFRTGRGFCL: 0.882 ± 0.2.
VSVEFRSDSARWGNDVCEET: the amyloid nucleation score result was “inactive”.
In the case of FPMSIESDSLNSGRGLRPWG, the amyloid nucleation score result is “inactive”.
The same measure for GLRNHCPSFLLWASTARGTL: -0.976 ± 2.5; for ISSNLLHAVWYSHEPGW: 1.81 ± 0.061.
For GFIMEYDEY, the amyloid nucleation score entry was “inactive”.
For YIETISPFLCGCYSIFSPMI, the amyloid nucleation score stood at 2.8 ± 0.084.
Then NKEMIFANYSAGRRYVRYST, with “inactive”.
Take TTKEVESNSAHCPKSSLACT: the amyloid nucleation score entry is “inactive”.
Take ILPDLRTFPWSPVVIVHSR: the amyloid nucleation score entry was “inactive”.
Then ESLIGSQGQRSNYNIMGNGW, with “inactive”.
Then TNTYF, with “inactive”; and YIPVSTFM, with -0.135 ± 0.6.
The same measure for FISHSCYGWILRGCQTVGFW: -0.552 ± 0.98; for TGFLGWDACGALRIFLTVRW: “inactive”.
In turn, SNRYVCLAYYFSE returned an amyloid nucleation score of 0.154 ± 0.49.
The same measure for FECYRSSLGQWVMLDVSIHW: -0.534 ± 0.87; for NRGNSIRRDNWFRVILRTCH: “inactive”.
Then SAGACSV, with “inactive”; and FWNVLWATRLYFFSFYDITS, with “inactive”; and CMRLLTWIKPNWLLLVCLKT, with “inactive”.
Consider LVSCK, for which the amyloid nucleation score result is “inactive”.
With SPTLPGCLVLEIINDNI, the amyloid nucleation score result is “inactive”.
The same measure for FRYRNSSTEVCWKRSWLTLG: “inactive”.
Turning to MLCLWFNEFHDVCPT, the amyloid nucleation score entry is “inactive”.
As for FRNRCVNDD, the amyloid nucleation score result was “inactive”.
Turning to FWVNVCVFMGRVW, the amyloid nucleation score result is “inactive”.
The same measure for HDESQVVLCRYCCSDVRLTH: “inactive”.
Then FNRGKRCNSIRSLVPCNSPL, with “inactive”.
